# Laboratory results reported in article PMC9352680, “A comprehensive thermodynamic model for RNA binding by the Saccharomyces cerevisiae Pumilio protein PUF4”.
# T1: PUF4 RNA-binding domain (Saccharomyces cerevisiae, UniProt P25339 537-888)
# T1 sequence: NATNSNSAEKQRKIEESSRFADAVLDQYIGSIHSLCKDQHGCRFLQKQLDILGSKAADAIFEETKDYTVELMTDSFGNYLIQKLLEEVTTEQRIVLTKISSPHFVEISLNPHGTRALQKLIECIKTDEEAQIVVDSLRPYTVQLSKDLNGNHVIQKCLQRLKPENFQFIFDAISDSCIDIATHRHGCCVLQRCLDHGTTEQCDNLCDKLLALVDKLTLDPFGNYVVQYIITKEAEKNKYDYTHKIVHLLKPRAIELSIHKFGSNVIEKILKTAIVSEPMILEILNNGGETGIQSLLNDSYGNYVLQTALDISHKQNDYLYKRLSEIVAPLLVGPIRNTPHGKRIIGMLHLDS
# Target: T1, PUF4 RNA-binding domain
# Test: Mg; RNA-MaP; 20 mM Na-HEPES pH 7.4, 30 mM KOAc, 0.75 mM MgCl2, 0.1% Tween-20, 5% glycerol, 0.1 mg/mL BSA, 2 mM DTT; 25 C; 0.0125-409.6 nM protein
# Conditions: tags: N-His6-TEV cleaved; C-SNAP kept, Cy3B-labelled; label: tethered on chip by stalled RNA polymerase
row,Binder,Kd
1,UCUCUUUGUUUUAUAAUCUCUU (ssRNA) [Ib_S1_P5E.1_K5.1_C5.1_H5.1_[A4T]_A5.1_F5.1_[T9A]_T5.1],87.4 nM
2,UCUCUUAGUAUUAUUGUCUCUU (ssRNA) [Ib_S1_P5E.1_K5.1_C5.1_H5.1_[T1A]_A5.1_F5.1_[A10G]_T5.1],> 2300 nM
3,UCUCUUGGUAUUAUUCUCUCUU (ssRNA) [Ib_S1_P5E.1_K5.1_C5.1_H5.1_[T1G]_A5.1_F5.1_[A10C]_T5.1],> 2300 nM
4,Id_ii_S2_P4E.2_K4.1_C4.2_[C-2G]_[T-1C]_H4.1_A4.1_F4.1_T4.2_[G10A] (ssRNA) RNA: UUUGAUUAAUAUGAUAUCGUUCUUUCUGCUGUAUAUUAAUUUCUUUCUCGAUAUCAUAUUAAUCUUU,0.535 nM
5,Id_ii_S2_P4E.2_K4.1_C4.2_[C-2T]_[T-1G]_H4.1_A4.1_F4.1_T4.2_[G10T]_[T11C] (ssRNA) RNA: UUUGAUUAAUAUGAUAUCGUUCUUUCUUGUGUAUAUUAUCUUCUUUCUCGAUAUCAUAUUAAUCUUU,0.441 nM
6,Id_ii_S2_P4E.2_K4.1_C4.2_[C-2T]_[T-1G]_H4.1_A4.1_F4.1_T4.2_[G10A]_[T11A] (ssRNA) RNA: UUUGAUUAAUAUGAUAUCGUUCUUUCUUGUGUAUAUUAAAUUCUUUCUCGAUAUCAUAUUAAUCUUU,0.532 nM
7,Id_ii_S2_P4E.2_K4.1_C4.2_[C-2T]_[T-1G]_H4.1_A4.1_F4.1_T4.2_[G10T] (ssRNA) RNA: UUUGAUUAAUAUGAUAUCGUUCUUUCUUGUGUAUAUUAUUUUCUUUCUCGAUAUCAUAUUAAUCUUU,0.23 nM
8,Id_ii_S2_P4E.2_K4.1_C4.2_[C-2T]_[T-1C]_H4.1_A4.1_F4.1_T4.2_[G10T]_[T11C] (ssRNA) RNA: UUUGAUUAAUAUGAUAUCGUUCUUUCUUCUGUAUAUUAUCUUCUUUCUCGAUAUCAUAUUAAUCUUU,0.305 nM
9,Id_ii_S2_P4E.2_K4.1_C4.2_[C-2T]_H4.1_A4.1_F4.1_T4.2_[T11C] (ssRNA) RNA: UUUGAUUAAUAUGAUAUCGUUCUUUCUUUUGUAUAUUAGCUUCUUUCUCGAUAUCAUAUUAAUCUUU,0.396 nM
10,Id_ii_S2_P4E.2_K4.1_C4.2_[C-2T]_[T-1A]_H4.1_A4.1_F4.1_T4.2_[T11C] (ssRNA) RNA: UUUGAUUAAUAUGAUAUCGUUCUUUCUUAUGUAUAUUAGCUUCUUUCUCGAUAUCAUAUUAAUCUUU,0.523 nM
11,Id_ii_S2_P4E.2_K4.1_C4.2_[C-2G]_H4.1_A4.1_F4.1_T4.2_[G10A] (ssRNA) RNA: UUUGAUUAAUAUGAUAUCGUUCUUUCUGUUGUAUAUUAAUUUCUUUCUCGAUAUCAUAUUAAUCUUU,0.724 nM
12,Id_ii_S2_P4E.2_K4.1_C4.2_[C-2T]_[T-1C]_H4.1_A4.1_F4.1_T4.2_[G10A]_[T11A] (ssRNA) RNA: UUUGAUUAAUAUGAUAUCGUUCUUUCUUCUGUAUAUUAAAUUCUUUCUCGAUAUCAUAUUAAUCUUU,0.481 nM
13,Id_ii_S2_P4E.2_K4.1_C4.2_[C-2T]_[T-1C]_H4.1_A4.1_F4.1_T4.2_[G10C]_[T11C] (ssRNA) RNA: UUUGAUUAAUAUGAUAUCGUUCUUUCUUCUGUAUAUUACCUUCUUUCUCGAUAUCAUAUUAAUCUUU,0.565 nM
14,Id_ii_S2_P4E.2_K4.1_C4.2_[C-2T]_H4.1_A4.1_F4.1_T4.2_[G10T]_[T11C] (ssRNA) RNA: UUUGAUUAAUAUGAUAUCGUUCUUUCUUUUGUAUAUUAUCUUCUUUCUCGAUAUCAUAUUAAUCUUU,0.364 nM
15,Id_ii_S2_P4E.2_K4.1_C4.2_[C-2T]_[T-1A]_H4.1_A4.1_F4.1_T4.2 (ssRNA) RNA: UUUGAUUAAUAUGAUAUCGUUCUUUCUUAUGUAUAUUAGUUUCUUUCUCGAUAUCAUAUUAAUCUUU,0.715 nM
16,Id_ii_S2_P4E.2_K4.1_C4.2_[C-2T]_[T-1C]_H4.1_A4.1_F4.1_T4.2 (ssRNA) RNA: UUUGAUUAAUAUGAUAUCGUUCUUUCUUCUGUAUAUUAGUUUCUUUCUCGAUAUCAUAUUAAUCUUU,0.446 nM
17,Id_ii_S2_P4E.2_K4.1_C4.2_[C-2G]_H4.1_A4.1_F4.1_T4.2_[G10T]_[T11A] (ssRNA) RNA: UUUGAUUAAUAUGAUAUCGUUCUUUCUGUUGUAUAUUAUAUUCUUUCUCGAUAUCAUAUUAAUCUUU,0.928 nM
18,Id_ii_S2_P4E.2_K4.1_C4.2_[C-2T]_H4.1_A4.1_F4.1_T4.2_[G10T]_[T11A] (ssRNA) RNA: UUUGAUUAAUAUGAUAUCGUUCUUUCUUUUGUAUAUUAUAUUCUUUCUCGAUAUCAUAUUAAUCUUU,0.564 nM
19,Id_ii_S2_P4E.2_K4.1_C4.2_[C-2T]_[T-1A]_H4.1_A4.1_F4.1_T4.2_[G10T] (ssRNA) RNA: UUUGAUUAAUAUGAUAUCGUUCUUUCUUAUGUAUAUUAUUUUCUUUCUCGAUAUCAUAUUAAUCUUU,0.502 nM
20,Id_ii_S2_P4E.2_K4.1_C4.2_[C-2A]_[T-1G]_H4.1_A4.1_F4.1_T4.2_[G10A] (ssRNA) RNA: UUUGAUUAAUAUGAUAUCGUUCUUUCUAGUGUAUAUUAAUUUCUUUCUCGAUAUCAUAUUAAUCUUU,0.973 nM
21,Id_ii_S2_P4E.2_K4.1_C4.2_[C-2T]_H4.1_A4.1_F4.1_T4.2 (ssRNA) RNA: UUUGAUUAAUAUGAUAUCGUUCUUUCUUUUGUAUAUUAGUUUCUUUCUCGAUAUCAUAUUAAUCUUU,0.456 nM

row,Binder,Kd
1,Id_ii_S2_P4E.2_K4.1_C4.2_[C-2T]_[T-1A]_H4.1_A4.1_F4.1_T4.2_[G10T]_[T11C] (ssRNA) RNA: UUUGAUUAAUAUGAUAUCGUUCUUUCUUAUGUAUAUUAUCUUCUUUCUCGAUAUCAUAUUAAUCUUU,0.618 nM
2,Id_ii_S2_P4E.2_K4.1_C4.2_[C-2T]_[T-1A]_H4.1_A4.1_F4.1_T4.2_[G10A]_[T11A] (ssRNA) RNA: UUUGAUUAAUAUGAUAUCGUUCUUUCUUAUGUAUAUUAAAUUCUUUCUCGAUAUCAUAUUAAUCUUU,1.03 nM
3,Id_ii_S2_P4E.2_K4.1_C4.2_[C-2A]_[T-1G]_H4.1_A4.1_F4.1_T4.2_[G10T]_[T11G] (ssRNA) RNA: UUUGAUUAAUAUGAUAUCGUUCUUUCUAGUGUAUAUUAUGUUCUUUCUCGAUAUCAUAUUAAUCUUU,1.63 nM
4,Id_ii_S2_P4E.2_K4.1_C4.2_[C-2T]_[T-1C]_H4.1_A4.1_F4.1_T4.2_[G10A]_[T11C] (ssRNA) RNA: UUUGAUUAAUAUGAUAUCGUUCUUUCUUCUGUAUAUUAACUUCUUUCUCGAUAUCAUAUUAAUCUUU,0.526 nM
5,Id_ii_S2_P4E.2_K4.1_C4.2_[C-2G]_H4.1_A4.1_F4.1_T4.2_[G10A]_[T11A] (ssRNA) RNA: UUUGAUUAAUAUGAUAUCGUUCUUUCUGUUGUAUAUUAAAUUCUUUCUCGAUAUCAUAUUAAUCUUU,0.659 nM
6,Id_ii_S2_P4E.2_K4.1_C4.2_[C-2A]_[T-1G]_H4.1_A4.1_F4.1_T4.2_[G10A]_[T11A] (ssRNA) RNA: UUUGAUUAAUAUGAUAUCGUUCUUUCUAGUGUAUAUUAAAUUCUUUCUCGAUAUCAUAUUAAUCUUU,1.64 nM
7,Id_ii_S2_P4E.2_K4.1_C4.2_[C-2T]_[T-1C]_H4.1_A4.1_F4.1_T4.2_[G10C] (ssRNA) RNA: UUUGAUUAAUAUGAUAUCGUUCUUUCUUCUGUAUAUUACUUUCUUUCUCGAUAUCAUAUUAAUCUUU,0.602 nM
8,Id_ii_S2_P4E.2_K4.1_C4.2_[C-2T]_[T-1A]_H4.1_A4.1_F4.1_T4.2_[G10C]_[T11C] (ssRNA) RNA: UUUGAUUAAUAUGAUAUCGUUCUUUCUUAUGUAUAUUACCUUCUUUCUCGAUAUCAUAUUAAUCUUU,0.822 nM
9,Id_ii_S2_P4E.2_K4.1_C4.2_[C-2T]_[T-1A]_H4.1_A4.1_F4.1_T4.2_[G10A] (ssRNA) RNA: UUUGAUUAAUAUGAUAUCGUUCUUUCUUAUGUAUAUUAAUUUCUUUCUCGAUAUCAUAUUAAUCUUU,0.878 nM
10,Id_ii_S2_P4E.2_K4.1_C4.2_[C-2G]_H4.1_A4.1_F4.1_T4.2_[G10C]_[T11C] (ssRNA) RNA: UUUGAUUAAUAUGAUAUCGUUCUUUCUGUUGUAUAUUACCUUCUUUCUCGAUAUCAUAUUAAUCUUU,1.8 nM
11,Id_ii_S2_P4E.2_K4.1_C4.2_[C-2G]_H4.1_A4.1_F4.1_T4.2_[G10T]_[T11C] (ssRNA) RNA: UUUGAUUAAUAUGAUAUCGUUCUUUCUGUUGUAUAUUAUCUUCUUUCUCGAUAUCAUAUUAAUCUUU,1.6 nM
12,Id_ii_S2_P4E.2_K4.1_C4.2_[C-2T]_H4.1_A4.1_F4.1_T4.2_[G10T]_[T11G] (ssRNA) RNA: UUUGAUUAAUAUGAUAUCGUUCUUUCUUUUGUAUAUUAUGUUCUUUCUCGAUAUCAUAUUAAUCUUU,0.421 nM
13,Id_ii_S2_P4E.2_K4.1_C4.2_[C-2T]_H4.1_A4.1_F4.1_T4.2_[G10T] (ssRNA) RNA: UUUGAUUAAUAUGAUAUCGUUCUUUCUUUUGUAUAUUAUUUUCUUUCUCGAUAUCAUAUUAAUCUUU,0.26 nM
14,Id_ii_S2_P4E.2_K4.1_C4.2_[C-2T]_[T-1G]_H4.1_A4.1_F4.1_T4.2_[G10A] (ssRNA) RNA: UUUGAUUAAUAUGAUAUCGUUCUUUCUUGUGUAUAUUAAUUUCUUUCUCGAUAUCAUAUUAAUCUUU,0.4 nM
15,Id_ii_S2_P4E.2_K4.1_C4.2_[C-2T]_H4.1_A4.1_F4.1_T4.2_[G10C]_[T11C] (ssRNA) RNA: UUUGAUUAAUAUGAUAUCGUUCUUUCUUUUGUAUAUUACCUUCUUUCUCGAUAUCAUAUUAAUCUUU,0.557 nM
16,Id_ii_S2_P4E.2_K4.1_C4.2_[C-2T]_H4.1_A4.1_F4.1_T4.2_[G10A] (ssRNA) RNA: UUUGAUUAAUAUGAUAUCGUUCUUUCUUUUGUAUAUUAAUUUCUUUCUCGAUAUCAUAUUAAUCUUU,0.408 nM
17,Id_ii_S2_P4E.2_K4.1_C4.2_[C-2G]_H4.1_A4.1_F4.1_T4.2_[G10T]_[T11G] (ssRNA) RNA: UUUGAUUAAUAUGAUAUCGUUCUUUCUGUUGUAUAUUAUGUUCUUUCUCGAUAUCAUAUUAAUCUUU,0.585 nM
18,Id_ii_S2_P4E.2_K4.1_C4.2_[C-2T]_H4.1_A4.1_F4.1_T4.2_[G10C] (ssRNA) RNA: UUUGAUUAAUAUGAUAUCGUUCUUUCUUUUGUAUAUUACUUUCUUUCUCGAUAUCAUAUUAAUCUUU,0.762 nM
19,Id_ii_S2_P4E.2_K4.1_C4.2_[C-2T]_[T-1G]_H4.1_A4.1_F4.1_T4.2_[G10T]_[T11G] (ssRNA) RNA: UUUGAUUAAUAUGAUAUCGUUCUUUCUUGUGUAUAUUAUGUUCUUUCUCGAUAUCAUAUUAAUCUUU,0.416 nM
20,Id_ii_S2_P4E.2_K4.1_C4.2_[C-2A]_[T-1G]_H4.1_A4.1_F4.1_T4.2_[G10T]_[T11C] (ssRNA) RNA: UUUGAUUAAUAUGAUAUCGUUCUUUCUAGUGUAUAUUAUCUUCUUUCUCGAUAUCAUAUUAAUCUUU,2.27 nM
21,UCUCUUGGUAUUAUUGUCUCUU (ssRNA) [Ib_S1_P5E.1_K5.1_C5.1_H5.1_[T1G]_A5.1_F5.1_[A10G]_T5.1],> 2300 nM
